Laboratory results reported in the supplement of paper PMC11246515.
± gives the standard deviation of the averaged measurements.

Assay: total protein half-life in vivo (active degradation + dilution); higher = more stable protein
[1] = E. coli NCM3722 delta-clpP delta-lon delta-hslV, growth: N-lim chemostat, doubling time 6 h
[2] = E. coli NCM3722 delta-clpP, growth: N-lim chemostat, doubling time 6 h
[3] = E. coli NCM3722 delta-hslV, growth: N-lim chemostat, doubling time 6 h
[4] = E. coli NCM3722 delta-lon, growth: N-lim chemostat, doubling time 6 h
[5] = E. coli NCM3722 delta-smpB, growth: N-lim chemostat, doubling time 6 h
[6] = wild type E. coli NCM3722, growth: C-lim chemostat, doubling time 3 h
[7] = wild type E. coli NCM3722, growth: C-lim chemostat, doubling time 6 h
[8] = wild type E. coli NCM3722, growth: C-lim chemostat, doubling time 12 h
[9] = wild type E. coli NCM3722, growth: N-lim chemostat, doubling time 6 h
[10] = wild type E. coli NCM3722, growth: N-lim chemostat, doubling time 12 h
[11] = wild type E. coli NCM3722, growth: P-lim chemostat, doubling time 6 h
[12] = wild type E. coli NCM3722, growth: P-lim chemostat, doubling time 12 h

With “MRKIALILAMLLIPCVSFAGLLGSSSSTTPVSKEYKQQLMGSPVYIQIFKEERTLDLYVKMGEQYQLLDSYKICKYSGGLGPKQRQGDFKSPEGFYSVQRNQLKPDSRYYKAINIGFPNAYDRAHGYEGKYLMIHGDCVSIGCYAMTNQGIDEIFQFVTGALVFGQPSVQVSIYPFRMTDANMKRHKYSNFKDFWEQLKPGYDYFEQTRKPPTVSVVNGRYVVSKPLSHEVVQPQLASNYTLPEAK [P0AA99]” the “total protein half-life in vivo” value [1] was 0.797 h, the “total protein half-life in vivo” value [2] was 0.657 ± 0.077 h and the “total protein half-life in vivo” value [3] was 0.844 h. For the same sequence, the “total protein half-life in vivo” value [4] was 0.64 h, the “total protein half-life in vivo” value [5] was 0.689 ± 0.063 h and the “total protein half-life in vivo” value [6] was 0.313 ± 0.18 h. For the same sequence, the “total protein half-life in vivo” value [7] was 1.37 h, the “total protein half-life in vivo” value [8] was 1.81 h and the “total protein half-life in vivo” value [9] was 0.909 ± 0.048 h. The “total protein half-life in vivo” value [10] was 1.54 ± 0.73 h, the “total protein half-life in vivo” value [11] was 0.858 ± 0.34 h and the “total protein half-life in vivo” value [12] was 1.45 ± 0.56 h.

In the case of “MRKIIHVDMDCFFAAVEMRDNPALRDIPIAIGGSRERRGVISTANYPARKFGVRSAMPTGMALKLCPHLTLLPGRFDAYKEASNHIREIFSRYTSRIEPLSLDEAYLDVTDSVHCHGSATLIAQEIRQTIFNELQLTASAGVAPVKFLAKIASDMNKPNGQFVITPAEVPAFLQTLPLAKIPGVGKVSAAKLEAMGLRTCGDVQKCDLVMLLKRFGKFGRILWERSQGIDERDVNSERLRKSVGVERTMAEDIHHWSECEAIIERLYPELERRLAKVKPDLLIARQGVKLKFDDFQQTTQEHVWPRLNKADLIATARKTWDERRGGRGVRLVGLHVTLLDPQMERQLVLGL”, the “total protein half-life in vivo” value [1] is reported as 4.16 ± 0.15 h.

In the case of “MRKIKGLRWYMIALVTLGTVLGYLTRNTVAAAAPTLMEELNISTQQYSYIIAAYSAAYTVMQPVAGYVLDVLGTKIGYAMFAVLWAVFCGATALAGSWGGLAVARGAVGAAEAAMIPAGLKASSEWFPAKERSIAVGYFNVGSSIGAMIAPPLVVWAIVMHSWQMAFIISGALSFIWAMAWLIFYKHPRDQKHLTDEERDYIINGQEAQHQVSTAKKMSVGQILRNRQFWGIALPRFLAEPAWGTFNAWIPLFMFKVYGFNLKEIAMFAWMPMLFADLGCILGGYLPPLFQRWFGVNLIVSRKMVVTLGAVLMIGPGMIGLFTNPYVAIMLLCIGGFAHQALSGALITLSSDVFGRNEVATANGLTGMSAWLASTLFALVVGALADTIGFSPLFAVLAVFDLLGALVIWTVLQNKPAIEVAQETHNDPAPQH [P0AA78]”, the “total protein half-life in vivo” value [7] is reported as 5.93 ± 0.18 h and the “total protein half-life in vivo” value [8] is reported as 9.36 ± 0.82 h.

With “MRKITQAISAVCLLFALNSSAVALASSPSPLNPGTNVARLAEQAPIHWVSVAQIENSLAGRPPMAVGFDIDDTVLFSSPGFWRGKKTFSPESEDYLKNPVFWEKMNNGWDEFSIPKEVARQLIDMHVRRGDAIFFVTGRSPTKTETVSKTLADNFHIPATNMNPVIFAGDKPGQNTKSQWLQDKNIRIFYGDSDNDITAARDVGARGIRILRASNSTYKPLPQAGAFGEEVIVNSEY [P0AE22]” the “total protein half-life in vivo” value [1] was 6.66 ± 1.4 h, the “total protein half-life in vivo” value [3] was 6.31 ± 0.14 h and the “total protein half-life in vivo” value [5] was 5.83 ± 0.2 h. For the same sequence, the “total protein half-life in vivo” value [6] was 3.637 ± 0.033 h, the “total protein half-life in vivo” value [8] was 11.7 ± 2.4 h and the “total protein half-life in vivo” value [9] was 5.79 ± 0.22 h. The “total protein half-life in vivo” value [10] was over 16 h, the “total protein half-life in vivo” value [11] was 6.42 ± 0.61 h and the “total protein half-life in vivo” value [12] was 13.2 ± 0.27 h.

With “MRKKIEMSLIKSPANGVVIKRKISDGLKEIVSLKEKILLETTAKIQSIEEKREEKFIQGYYDGYTKGIIDEMDNFIPLISLLCSELEKKRINMINDLKSILLKPSEEVDVFIKIFESWVTKLPSISGPVNLHIPTSFKDKSLEVESYFVDKSIWNVHITFHDDKRFVFFTDQFIAEFSPQEFVDNCEQYLINNHCFSPDKVNEICEQARHYLVEKMFETHSLDMNNSVLASPEDL” the “total protein half-life in vivo” value [10] was over 16 h.

With “MRKLTALFVASTLALGAANLAHAADTTTAAPADAKPMMHHKGKFGPHQDMMFKDLNLTDAQKQQIREIMKGQRDQMKRPPLEERRAMHDIIASDTFDKVKAEAQIAKMEEQRKANMLAHMETQNKIYNILTPEQKKQFNANFEKRLTERPAAKGKMPATAE” the “total protein half-life in vivo” value [2] was 3.6 h, the “total protein half-life in vivo” value [4] was 4.86 ± 2.6 h and the “total protein half-life in vivo” value [5] was 4.4 ± 1.1 h. For the same sequence, the “total protein half-life in vivo” value [6] was 2.63 h, the “total protein half-life in vivo” value [7] was 4.54 ± 0.28 h and the “total protein half-life in vivo” value [8] was 8.06 ± 4.6 h. The “total protein half-life in vivo” value [10] was 1.93 h, the “total protein half-life in vivo” value [11] was 3.86 ± 0.27 h and the “total protein half-life in vivo” value [12] was 6.54 ± 0.43 h.

In the case of “MRKQWLGICIAAGMLAACTSDDGQQQTVSVPQPAVCNGPIVEISGADPRFEPLNATANQDYQRDGKSYKIVQDPSRFSQAGLAAIYDAEPGSNLTASGEAFDPTQLTAAHPTLPIPSYARITNLANGRMIVVRINDRGPYGNDRVISLSRAAADRLNTSNNTKVRIDPIIVAQDGSLSGPGMACTTVAKQTYALPAPPDLSGGAGTSSVSGPQGDILPVSNSTLKSEDPTGAPVTSSGFLGAPTTLAPGVLEGSEPTPAPQPVVTAPSTTPATSPAMVTPQAVSQSASGNFMVQVGAVSDQARAQQYQQQLGQKFGVPGRVTQNGAVWRIQLGPFASKAEASTLQQRLQTEAQLQSFITTAQ”, the “total protein half-life in vivo” value [1] is reported as 5.56 ± 0.12 h, the “total protein half-life in vivo” value [2] is reported as 5.78 ± 0.37 h and the “total protein half-life in vivo” value [3] is reported as 6.5 ± 0.56 h. For the same sequence, the “total protein half-life in vivo” value [4] was 6.29 ± 0.38 h, the “total protein half-life in vivo” value [5] was 5.65 ± 0.12 h and the “total protein half-life in vivo” value [6] was 3.1 ± 0.15 h. For the same sequence, the “total protein half-life in vivo” value [7] was 5.89 ± 0.42 h, the “total protein half-life in vivo” value [9] was 6.17 ± 0.07 h and the “total protein half-life in vivo” value [10] was 13.4 ± 2.2 h. The “total protein half-life in vivo” value [12] was 12.38 ± 0.038 h.

In the case of “MRLEFSIYRYNPDVDDAPRMQDYTLEADEGRDMMLLDALIQLKEKDPSLSFRRSCREGVCGSDGLNMNGKNGLACITPISALNQPGKKIVIRPLPGLPVIRDLVVDMGQFYAQYEKIKPYLLNNGQNPPAREHLQMPEQREKLDGLYECILCACCSTSCPSFWWNPDKFIGPAGLLAAYRFLIDSRDTETDSRLDGLSDAFSVFRCHSIMNCVSVCPKGLNPTRAIGHIKSMLLQRNA”, the “total protein half-life in vivo” value [1] is reported as 6.38 ± 1.4 h, the “total protein half-life in vivo” value [2] is reported as 5.1 ± 0.12 h and the “total protein half-life in vivo” value [3] is reported as 5.6 ± 0.19 h. The “total protein half-life in vivo” value [4] was 5.16 ± 1.2 h, the “total protein half-life in vivo” value [5] was 5.06 ± 0.28 h and the “total protein half-life in vivo” value [6] was 3.17 ± 0.81 h. For the same sequence, the “total protein half-life in vivo” value [7] was 6.28 ± 0.13 h, the “total protein half-life in vivo” value [8] was 11.9 ± 0.33 h and the “total protein half-life in vivo” value [9] was 5.22 ± 0.7 h. The “total protein half-life in vivo” value [10] was 10.7 ± 0.97 h, the “total protein half-life in vivo” value [11] was 5.138 ± 0.038 h and the “total protein half-life in vivo” value [12] was 10.5 ± 0.14 h.

In the case of “MRLFIAEKPSLARAIADVLPKPHRKGDGFIECGNGQVVTWCIGHLLEQAQPDAYDSRYARWNLADLPIVPEKWQLQPRPSVTKQLNVIKRFLHEASEIVHAGDPDREGQLLVDEVLDYLQLAPEKRQQVQRCLINDLNPQAVERAIDRLRSNSEFVPLCVSALARARADWLYGINMTRAYTILGRNAGYQGVLSVGRVQTPVLGLVVRRDEEIENFVAKDFFEVKAHIVTPADERFTAIWQPSEACEPYQDEEGRLLHRPLAEHVVNRISGQPAIVTSYNDKRESESAPLPFSLSALQIEAAKRFGLSAQNVLDICQKLYETHKLITYPRSDCRYLPEEHFAGRHAVMNAISVHAPDLLPQPVVDPDIRNRCWDDKKVDAHHAIIPTARSSAINLTENEAKVYNLIARQYLMQFCPDAVFRKCVIELDIAKGKFVAKARFLAEAGWRTLLGSKERDEENDGTPLPVVAKGDELLCEKGEVVERQTQPPRHFTDATLLSAMTGIARFVQDKDLKKILRATDGLGTEATRAGIIELLFKRGFLTKKGRYIHSTDAGKALFHSLPEMATRPDMTAHWESVLTQISEKQCRYQDFMQPLVGTLYQLIDQAKRTPVRQFRGIVAPGSGGSADKKKAAPRKRSAKKSPPADEVGSGAIA”, the “total protein half-life in vivo” value [1] is reported as 5.31 ± 0.35 h, the “total protein half-life in vivo” value [2] is reported as 2.48 ± 0.14 h and the “total protein half-life in vivo” value [3] is reported as 1.843 ± 0.0066 h. The “total protein half-life in vivo” value [4] was 4.39 ± 0.75 h, the “total protein half-life in vivo” value [5] was 1.97 ± 0.14 h and the “total protein half-life in vivo” value [6] was 1.65 ± 0.098 h. The “total protein half-life in vivo” value [7] was 3.12 ± 0.038 h, the “total protein half-life in vivo” value [8] was 3.27 ± 0.57 h and the “total protein half-life in vivo” value [9] was 2.32 ± 0.17 h. For the same sequence, the “total protein half-life in vivo” value [10] was 3.255 ± 0.0094 h, the “total protein half-life in vivo” value [11] was 2.23 ± 0.41 h and the “total protein half-life in vivo” value [12] was 4.46 ± 1.1 h.
